From patent publication CN111690058A (SANYOU BIO INC; SHANGHAI ZJ BIO TECH CO LTD, dated 2020)

Key:
[1] = target: T1, S蛋白RBD-His (319Arg-532Asn) (2019-nCoV (SARS-CoV-2), UniProt P0DTC2 319-532)
[2] = target: T1, S蛋白RBD-His (319Arg-532Asn); assay: BLI (Fortebio), RBD-His on Anti-Penta-HIS sensor, antibody in solution

B1: 候选抗体P16-A3 (全长人IgG1, κ轻链) (antibody, V domains shown)
VH: QVQLVESGGGVVQPGRSLRLSCAASGFTFSSYGMHWVRQAPGKGLEWVAVISYDGSNKYYADSVKGRFTISRDNSKNTLYLQMNSLRAEDTAVYYCARAYSSSWLLQSFYYYGMDVWGQGTTVTVSS
VL: NIQLTQSPVSLSASVGDRVTLTCRASQGIGYSLVWYQKKPGTAPKLLIFDASTLQSGVPSRFSGSGSGTDFTLTISSLQPEDSATYYCQQVIHYPLTFGGGTKVEIK
What does the source list for B1?
IC50 [1]: 7.7 nM; Kd [2]: 0.415 nM; koff [2]: 7.17e-05 s⁻¹; kon [2]: 173000 M⁻¹ s⁻¹
